# Laboratory results as given in the DeepSol protein solubility set.
# Assay: soluble on expression in E. coli; label from the status in PepcDB or PDB records
row,Sequence,soluble on expression in E. coli
1,MKSVIIVGAGIGGLCLAQGLAKAGIEFEVWEADAGPQVRGQGYRLRIDAMGQRALRQCLPPDLFELFRASCAVSGPARFVDPQLNPLPGRRPENWRENADAGEAGGDLSADRQVLRDILSHGLAPQIRWGRRARGFERGGDGIVVHCADGSEHGAALVVAADGLHSPLRRQWLPQAEPEAIGALNLYGKTPLDGIDPALLAGPTIVFADGWTLVVEPMRFRAAMSGLAARHAPDCRLSPTDDYVYWAMFGREACLGGSLSGEEDAAGWRRRIEAASGGLHPGLSDLLRRTAPEAVMGRAVRMAAGVPSWPPGRLTVLGDAIHAMSPAGGVGANTALADAAMLAVCLADGDVDRAVARYEADMRGRAERALVATRAGTERLLRRLLEHHHHHH,soluble
2,MNNYLRKLVEGQHLTEEEMYKAGLLLLNENILESEIAAFLVLLKAKGETAEEIYGLVRALREKALPFSNHIQGAMDNCGTGGDGAQTFNISTTSAFVLAGAGVKVAKHGNRAVSSKTGSADLLEELGVNISSTPNEIDYLLEHVGIAFLFAPAMHPALKRIMKIRKELNVPTIFNLIGPLTNPVNLETQFVGIYKRDMLLPVAQVLQKLGRKQALVVNGSGFLDEASLQGENHVVILKDNEIVETSIEPEKYGFSIVKNEEIRGGNSKENAKITLGVLSGEKSVYRDTVLFNAGLALFANGKAKTIEEGITLAAHSIDSGKALAKLNLLIAASNEELERVN,not soluble
3,MSLLSSEGPIFYVQERIGQNYKPFNCIKFRTMVSNADEVLMQMMETSPQLRQEFESSFKLKKDPRITKIGQFLRITSLDEFPQFWNVLKGDMSVVGPRPLVAEELPKYGDHIEQVLTIRPGITGLWQVSGRNDIPYPRRVQIDLHYVKSRTLWLDLWIILKTIDVVIMPKNNGAYEGHHHHHH,soluble
4,MAIIASNNSWDLYQLAVVILNYRTPQLVVDCLASLVSQIDPQTQQVIVVDNASGDDSVEEIEKAIANNNWQDWVRLLPSDVNGGFSAGNNLGIQAIRAENYLLLNSDTIVRPGAIQTLLVALEQYPEAGLFSPRLEWPDGTPQISCFRDHSPLSEMIDGARTSVITKLLQPFDVPIPVTEQSFEPQWTSFACVLIRRSVVEQIGLMDDGYFMYYDDIDYCRRARQAAWKIRYIPQASVVHLRGGSGSVKSDVASRKRPRPYLYASRSRYFAKFYGPLGLALANLGWLGGWGIAALREILGQKEPHTCDRQWQDIWFQWRQPLKPYRPELEHHHHHH,soluble
5,MGYKTILAVVDNVSNTQKLGEFVVSLADQFSSHVIGLHMETLAAVPLVAPMEIPDPATVQALQDVAHKETTDVGTLFERTLSTNGISHEWRSFVTSVGYASASAIDSARCADLIVARQSSSSALSDSRSDIDGFLYESGRPVLLVPHVLTVAKPIKRVLIAWNGSREATRATFDALPFLKAADSVEIFSVDQSESETQSAGLAGAELAATLARHGVNVTVTSQEKIAGLSPQAAIENRLSDNSIDLLVMGAYGHSRWWELLFGGVTRTLLDSMTAMTLLSR,soluble
6,MADVATKHPMEDEVKKTEASSLVGKLETDVEIKASADKFHHMFAGKPHHVSKASPGNIQGCDLHEGDWGTVGSIVFWNYVHDGEAKVAKERIEAVEPDKNLITFRVIEGDLMKEYKSFLLTIQVTPKPGGPGSIVHWHLEYEKISEEVAHPETLLQFCVEVSKEIDEHLLAEEEEVKTPETPSLVGKLETDVEIKASAEKFHHMFAGKPHHVSKASPGNIQGCDLHEGDWGQVGSIVFWNYVHGKEAKVAKERIEAVEPNKNLITFRVIDGDLMKEYKSFLLTIQVTPKLGGPGSIVHWHLEYEKISEEVAHPETLLQFCVEVSKEIDEHLLAEE,soluble
7,MMTGLTLLSCSTENDEFKKELPPTEQPSEPTGALLERFSIDQLPAKTIYALGESIDLTGLKVTGEYDDGKQRSVNVAPKQISGFSSSVPVDKQEVTITIEGKQKSFTIQVAPVRVENGVLTEVLKGYDEIILPNSVKSIPKNAFNGSKINKVTLNEGLKSIGDMAFFNSTIQEVIFPSTLEQLEENIFYYCYHLKKADLSRTKLTKLPASTFVYAGVEEVLLPATLTEIDAQAFLKTSQLKTIEIPENVRTIGLEAFRESSITTVKLPNGVTNIAQRAFYYCPELTEVTTYGTVFNDDPEAMIHPYCLEGCPQLTRFEIPQSIRILGQGLLGGNRKVTQLTIPANVTQINFSAFNNTGIKEVKVEGITPPQVFEKIWYGFPDDITVIRVPAESVEKYKTAAGWQDYTNKIQASLEHHHHHH,soluble
8,CILRFIACNGQTRAVQSRGDYQKTLAIALKKFSLEDASKFIVCVSQSSRIKLITEEEFKQICFNSSSPERDRLIIVPKEKPCPSFEDLRRSWEIELAQPAALSSQSSLSP,soluble
9,MSDELSVKRHKSDPDESIEEIMPEIRPPLTRTHKIVRDESGKHNLLLILTGSIAVMKAPELISELYEKIGRDRILIKVVTTENAMKLCHIQKLEFDEIVYEDRDEWSMWRERGDKVLHIELRKWADSALIAPLDANTMAKIANGLCDNLVTSIIRAWDLSKPCYFAPAMNTHMWENPLTMQHRTVLKSQLKFKEICPIQKELICGDVGTGAMASIGTIVSLVAALVRDQQAVRIQCG,not soluble
10,EPDSVSIPITCCFNVINRKIPIQRLESYTRITNIQCPKEAVIFKTQRGKEVCADPKERWVRDSMKHLDQIFQNLKP,soluble
11,MKPILALLSLLALPVMAAEPTLYGRYENIKVLEIGQTFKAKMDTGALTASLSAKDIELFQRDGDDWVRFRLATKGADDKVYEHKVSRISKIKGRAEGDDEDDEGINPAKRPVVDLELCLGNKKRTVEVNLVDRSHFNFPLLIGAKALREFGAAINPARRYTADEPDC,not soluble
12,SLSTKNHFIFPTYVQMYPYSKDRPFLKQVREKLRYYGYKWLYQKQCSQLVDFLNTETQWQSLFTQDYYRTNTILTTFCDKRFSASERLTAITENLRLAEEKMGRSLCQQLLDQQHIVLTQLTEDLRLSLSINHIDPFEGYFSINIRNQNNERVYDSSFTFLSPNKLLIASIQGPSSDNAQELVKQATKALHGMRPMFMLVNGFKMLAEKWQCELVGIPHKAQGKYRLSARSKILFNYDEFWQENQGEYRHNYWQLPLHIERKQLEDIASKKRSMYRKRYEMLDQMALDIQQL,not soluble
13,MCLAIPSKVIAIKDNVVLLETLGVQREASLDLMGESVKVGDYVLLHIGYVMSKIDEKEALESIELYQEMIARMNETQ,not soluble
14,MSLRLRKDVLNYESRQKSDLLIPNSNSISIYNQIADKYSRKITREEIFSGIYFLRYFLLRNAKGDVLEVGSGPGTNFPFYKWKKINTLTLVEPAEKMREIADARAKKKVPPNVLYRQFADLRQLPPNQSYDTIIQTFCICSQEKAVEQLNNYRSLLRSDGRILLIEHGKGKYKFLNRILNAYAESHYESWGCVWNRDIEQLLEDSELTIDSCKRFNFGTTYVIEAHEGHHHHHH,not soluble
15,AHHHHHHGSIPIAKPLIGEEEINAVIEVLKSGMLAHGKEVEAFEREFASYIGVKHGIAVVNGTAALDIALKALKIKPGDEIITTPFTFIASANAILFQGAKPVFADIDPKTYNLDPDEVLEKINEKTKAIIVVHLYGQPADMKAFKEIAEDYKLYLIEDCAQAHGAEFEGQKVGTFGDIAAFSFYPTKNMTTGEGGMVLTNDDELARRARLIRNHGQTEKYLHEELGYNLRMTNIAAALGRVQLRKLDKWNEIRIENAELLTKGIKRIKGLTPPYVDKRVKHVFHQYVIRVEDDFPLTRDELREKLMEKGIGTAVHYPMPVHHQPLYQRLGYSKDCCPNAIEASKRVLSLPVHPAVSKEDINYIIRTLEELG,not soluble
16,MAHHHHHHMDKYTKVKNIGKGNMGTCTLARNNEDGKYYVIKQVDLTRMSKKDRQQSLNEARVLSSLRHPNIINYVDSFLARKSDNLCIVMEYAESGDVCTRLKKHYGVNVPERQVVDWLIQLVLSLDYVHQRKILHRDVKTQNIFLTHENLIKLGDFGIARTLANTYDQAQTFVGTPYYLSPELILEQPYDHRSDVWALGVVLYEMLTLKHPFNAKDMKGLLQRILAVHYDPLPTMYSAELRDIVARMLVRDPAGRIKLDEILQIPIVRERIRQWLKEPDVVPQHYVRSLCKHHLLPDFQDEATAMPSTRSAARAAAAMAHEEWRTTSEATSAQTDGDVCARKDTDTRPHVTLGGPFSIPSTAARTAAAVCTSSADEESSDGVRPSIPPLKPYSNLPQLGMASPQLYTPQLPQMHPRVQSNNRASSPSRLFRSPFSTPSVARSAALPISRQQGDPVSQSSPAPLPLQRPIARAKAPTRPYARPYVAQPHLSPSPGYLFAANPRKNPIDARRQQSSRPSGPYLNPLFAAPRQMAPAYRSLVPPLPPPPDIKAMLQRAAAERARR,not soluble
17,MQGLESLTYYTENYPPLNFAKEDGKPAGIAVDLLLEAAAAVNVTLNLDQIFVQPWPRSYRSALLKQDGVLFSTTRTTHRENLFNWVGPIADIKVVVLARKSSQIKVNDPIELGNYRIGVIRDDIGEQQLLQLEHHHHHH,not soluble
18,DEYARDTKVEWREWGTAPFEDAAESGKPVLLALTVPWSAECRAMDRGTYGEPRIAANINDGFVPVRVDADRNPRVRERYTMGGFPSTVFLTPEGEVITGATFLGPDGFRGILDSVRESWDAQ,not soluble
19,MRISLKQLNVFTVIAQEKTMTKAAERLYITKPAVSLSLSELEKNLGYKVFDRVNNRLVLNSEGRQLLPLADELLERAEVIEHQFATDSQLTGSLNIGASDTIGNHIAPVLLSKFQQQYPCDIQQLFISNTAQIINRLLEFQLDIGLVEGKAHHPKLNMIEWRRDDMYLVCSPSHPLATKAQVTLDDLEHSTWLLREEGSGSREYFINHIAANLNDWHESLQLHTTEAIINCCAENMGLACLSQLAAQNAINDGRLVKLAYNKTLARQYWLLVHKEKYQTPLLQYFMNFIQQK,not soluble
20,MGSDKIHHHHHHVLINQQYTRHGPDYRFGEQVTFLDVKQTFGFSHVRVGRWVTRDESRLAADLVFDSLADLAFILKLPPLKLGLRETVSLAFGHGGQKGVQAHYAPAARELALAKNAGAGALAHEFWHAFDHYIAAKSFKSSSKRFQCASDLWLSDLPIIEHPLNARLSEIFKVTFLSGNGDEPHDYVRRAIALDKKHGMQYFARPTEMMARAFEACIESYDDISNPYLVSGTRFSAMAKEGAYPDEAHRKVIFQALINYFEPLGMALSKHPLG,not soluble
21,GPGSMRKFCHFMANCWNSARSHATYGAVPLTHSQVTSVYATDGGKVDELGLLELVEERIFSWKLNKWEMRIPPNLPNDQKELIRQEQENLKQILSGWRKCFGALNADILQISSLTGVPKEVVREKNRTWLQEEVAKLRWMGEVNKAALLRDAFMRLEAFGSRDFMFMERLCCIYGLARQGTFDEAFTNYITEDPVTNDIFVDERNPFKELVAHIVRNYSQIDIIYDFLGFNYSEGYRSSLRRYMEYLQCKTAENVRASGRLVTGDKGEHNILFDYCVSRESLVSGDSCQGIIDFLYINGNDVTLIIIASDNPWLRNRQLPHRRQMEGIARRVCFVLGIPPSEVRIRNLLLPPTYLDKGSIVRLNDIVFRLSNEQSNLLIPWLTNYNKELDPKDVDYTALAKTTNEEEWLTL,not soluble
22,MKRQLILEDGSFFVGEAFGSLKETTGEVVFNTGMTGYQEILTDPSYCGQIVTMTYPLIGNYGINRDDFEAIRPHVHGFIVKEACVKPSNWRGELTLDEYLKEKDIPGLAGIDTRKLTRLIRQYGTLKGMICGLDVDPVEAAAKLRAMEWPRDQVRRVSTKSAYPSPGRGERIVLIDFGMKHGILRELNKRNCDVIVLPYNATAEEVLGWHPDGVMLSNGPGDPKDVPEAIEMIRGILGKVPLFGICLGHQLFALACGANTEKMKFGHRGSNHPVKDLRTGKVAITSQNHGYTVTHESLSGTRLEVTHIALNDGTVEGLRHLDVPAFTVQYHPEASPGPEDANPLFDEFLALIREFNKKGEVIHA,soluble
